The values below come from publication PMC9122904, “Insights into the client protein release mechanism of the ATP-independent chaperone Spy” (Nature Communications, 2022).

Common to all, as to experiment: BLI; Octet RED96; client biotinylated and loaded on streptavidin sensors; Spy or Spy variant in solution at 0.25, 0.5, 1, 1.5 and 2 μM; 40 mM HEPES, 150 mM NaCl, pH 7.5; Kd calculated as koff/kon
What all share (settings): both partners purified

One experiment addresses T1, Spy_(29-124) H96D (UniProt P77754 52-147, H96D).
T1 construct: source: E. coli BL21 (DE3), purified (Ni-NTA, cation exchange, SEC); not shown: His6, N-terminal, cleaved; SUMO, N-terminal, cleaved
T1 sequence (looked up): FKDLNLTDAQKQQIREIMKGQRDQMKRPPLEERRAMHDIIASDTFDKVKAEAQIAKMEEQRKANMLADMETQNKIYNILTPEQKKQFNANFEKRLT

For experiment [1], the target named is T2, Spy D26E (UniProt P77754 24-161, D26E).
T2 construct: source: E. coli BL21 (DE3), purified (Ni-NTA, cation exchange, SEC); not shown: His6, N-terminal, cleaved; SUMO, N-terminal, cleaved
T2 sequence (looked up): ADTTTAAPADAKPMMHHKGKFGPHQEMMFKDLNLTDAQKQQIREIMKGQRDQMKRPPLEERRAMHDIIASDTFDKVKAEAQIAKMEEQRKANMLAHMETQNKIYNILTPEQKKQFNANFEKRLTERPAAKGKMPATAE

Experiment [2] concerns the target T3, Spy D26A (UniProt P77754 24-161, D26A).
T3 construct: source: E. coli BL21 (DE3), purified (Ni-NTA, cation exchange, SEC); not shown: His6, N-terminal, cleaved; SUMO, N-terminal, cleaved
T3 sequence (looked up): T2 sequence (looked up) with E26A

Experiment [3] has as its target T4, Spy D26K (UniProt P77754 24-161, D26K).
T4 construct: source: E. coli BL21 (DE3), purified (Ni-NTA, cation exchange, SEC); not shown: His6, N-terminal, cleaved; SUMO, N-terminal, cleaved
T4 sequence (looked up): T2 sequence (looked up) with E26K

Experiment [4] deals with T5, Spy D26R (UniProt P77754 24-161, D26R).
T5 construct: source: E. coli BL21 (DE3), purified (Ni-NTA, cation exchange, SEC); not shown: His6, N-terminal, cleaved; SUMO, N-terminal, cleaved
T5 sequence (looked up): T2 sequence (looked up) with E26R

For experiment [5], the target named is T2, Spy D26E. The source holds these as a separate data set.
The target in experiment [6] is T3, Spy D26A. The source holds these as a separate data set.
Experiment [7] has as its target T4, Spy D26K. The source holds these as a separate data set.
Experiment [8] deals with T5, Spy D26R. This is another data set of the same source.
A further experiment deals with T6, Spy_(29-127) (UniProt P77754 52-150).
T6 construct: Spy chaperone, residues 29-127; source: E. coli BL21 (DE3), purified (Ni-NTA, cation exchange, SEC); not shown: His6, N-terminal, cleaved; SUMO, N-terminal, cleaved
T6 sequence (looked up): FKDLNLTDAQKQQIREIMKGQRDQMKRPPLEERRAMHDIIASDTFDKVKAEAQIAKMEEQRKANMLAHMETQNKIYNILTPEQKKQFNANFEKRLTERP
The method in brief: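 Client proteins were biotinylated with EZ-link NHS-biotin at a 1:1 molar ratio, loaded onto streptavidin sensors, and measured by biolayer interferometry on an Octet RED96. The loaded sensors were dipped into 40 mM HEPES, 150 mM NaCl, pH 7.5 holding the analyte protein at 0.25, 0.5, 1, 1.5 or 2 μM, then moved to buffer without it. Fitting the wavelength-shift association and dissociation curves in SigmaPlot 12.0 gave the observed association rate and koff, kon was taken from the observed rate plotted against analyte concentration, and Kd was calculated as koff/kon.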

Changes are numbered by the printed parent chain. Names may count otherwise.

B1: Im7 H40W L53A I54A (natural protein)
chain: MELKNSISDYTEAEFVQLLKEIEKENVAATDDVLDVLLEWFVKITEHPDGTDAAYYPSDNRDDSPEGIVKEIKEWRAANGKPGFKQG
modifications: biotin (EZ-link NHS-biotin, 1:1 molar ratio of biotin to protein)
notes: Im7 (colicin E7 immunity protein) with H40W L53A I54A; Spy was made with an N-terminal His6-SUMO tag that was cleaved; also called Im7AAW; partially folded client; source: purified by a similar procedure to Spy
Turning to B1, the Kd (usually the concentration at which binding is half-saturated) was 1260 nM in the experiment with Spy_(29-124) H96D; 637 nM in the experiment with Spy D26E [1]; 274 nM in the experiment with Spy D26A [2]; 257 nM with Spy D26K [3]; 286 nM with Spy D26R [4]. Further, the koff (as a rule, the rate constant with which the complex falls apart) is 0.196 s⁻¹ with Spy D26E [5]; 0.0876 s⁻¹ with Spy D26A [6]; 0.0775 s⁻¹ with Spy D26K [7]; 0.0811 s⁻¹ in the experiment with Spy D26R [8]; 0.095 s⁻¹ with Spy_(29-127).
